Source: the supplement of paper PMC10065799, “High-throughput profiling of sequence recognition by tyrosine kinases and SH2 domains using bacterial peptide display” (eLife, 2023)

Key:
EPHB2 = EPHB2 (UniProt P29323); assay: phosphorylation enrichment, bacterial display (enrichment ratio); higher = better substrate or ligand; peptides without Tyr show the background
Fes = Fes (UniProt P07332); assay: as above
Fyn = Fyn (UniProt P06241); assay: as above
Jak2 = Jak2 (UniProt O60674); assay: as above
MERTK = MERTK (UniProt Q12866); assay: as above
FGFR3 = FGFR3 (UniProt P22607); assay: as above
Fer (mouse) = assay: as above
c-Abl (mouse) = assay: as above
FGFR1 = FGFR1 (UniProt P11362); assay: as above
AncSZ = assay: as above
c-Src = assay: as above
Hck = Hck (UniProt P08631); assay: as above
EPHB1 = EPHB1 (UniProt P54762); assay: as above
SHP2-C SH2 = assay: SH2 binding enrichment of the phosphorylated peptide, bacterial display (enrichment ratio); higher = better substrate or ligand; peptides without Tyr show the background
c-Src SH2 = assay: as above
Grb2 SH2 = Grb2 SH2 (UniProt P62993); assay: as above
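Wherever SH2 binding enrichment of the phosphorylated peptide, bacterial display is given: peptide library displayed on the E. coli surface as eCPX fusions, selected cells deep-sequenced, score is each peptide's frequency after selection divided by its frequency in the input.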
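Wherever phosphorylation enrichment, bacterial display is given: 11-residue human phosphosite peptides and single-mutation variants displayed on the E. coli surface, counted by deep sequencing, each peptide's frequency after selection divided by its frequency in the unselected input library; frequency after pTyr selection over input frequency; kinase dosed for 20-30% of maximal phosphorylation in three min.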

Chain of FGFR1 (P11362 whole entry, looked up): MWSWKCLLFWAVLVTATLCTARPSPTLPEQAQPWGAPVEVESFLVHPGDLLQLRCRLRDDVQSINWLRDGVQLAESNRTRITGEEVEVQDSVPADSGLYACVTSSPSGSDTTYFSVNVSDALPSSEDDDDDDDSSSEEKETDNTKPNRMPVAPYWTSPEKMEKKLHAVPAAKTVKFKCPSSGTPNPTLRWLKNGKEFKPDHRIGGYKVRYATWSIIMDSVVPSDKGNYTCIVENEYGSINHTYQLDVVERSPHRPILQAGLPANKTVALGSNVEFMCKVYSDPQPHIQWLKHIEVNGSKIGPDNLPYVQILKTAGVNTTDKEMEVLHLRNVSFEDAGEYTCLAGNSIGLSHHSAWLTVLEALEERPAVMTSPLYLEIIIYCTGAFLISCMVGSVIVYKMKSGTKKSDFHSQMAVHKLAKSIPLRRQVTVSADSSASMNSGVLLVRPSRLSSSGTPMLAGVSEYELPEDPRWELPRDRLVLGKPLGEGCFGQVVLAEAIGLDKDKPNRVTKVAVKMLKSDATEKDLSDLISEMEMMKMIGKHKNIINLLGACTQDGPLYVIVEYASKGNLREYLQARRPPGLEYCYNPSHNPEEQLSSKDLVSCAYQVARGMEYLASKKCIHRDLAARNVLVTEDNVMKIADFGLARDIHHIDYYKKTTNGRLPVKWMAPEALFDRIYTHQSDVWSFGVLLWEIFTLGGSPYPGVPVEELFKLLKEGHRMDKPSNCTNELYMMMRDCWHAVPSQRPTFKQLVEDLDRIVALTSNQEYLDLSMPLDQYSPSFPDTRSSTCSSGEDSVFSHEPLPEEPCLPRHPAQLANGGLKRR
Chain of Fyn (P06241 whole entry, looked up): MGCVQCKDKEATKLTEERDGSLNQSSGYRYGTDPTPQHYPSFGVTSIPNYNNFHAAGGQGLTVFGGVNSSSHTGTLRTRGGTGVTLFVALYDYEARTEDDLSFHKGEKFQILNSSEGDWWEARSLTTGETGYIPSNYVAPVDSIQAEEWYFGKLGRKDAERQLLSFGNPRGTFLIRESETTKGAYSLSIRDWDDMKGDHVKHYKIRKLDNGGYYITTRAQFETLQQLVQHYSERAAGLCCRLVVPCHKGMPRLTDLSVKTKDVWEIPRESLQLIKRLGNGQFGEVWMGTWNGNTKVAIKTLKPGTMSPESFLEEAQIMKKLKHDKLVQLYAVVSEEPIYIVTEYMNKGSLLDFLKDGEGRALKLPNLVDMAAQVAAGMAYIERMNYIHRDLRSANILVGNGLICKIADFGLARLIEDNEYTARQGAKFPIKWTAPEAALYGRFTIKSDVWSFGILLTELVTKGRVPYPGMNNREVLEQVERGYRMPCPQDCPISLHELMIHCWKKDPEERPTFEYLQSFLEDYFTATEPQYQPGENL
Chain of Grb2 SH2 (P62993 whole entry, looked up, the tested form may be a part): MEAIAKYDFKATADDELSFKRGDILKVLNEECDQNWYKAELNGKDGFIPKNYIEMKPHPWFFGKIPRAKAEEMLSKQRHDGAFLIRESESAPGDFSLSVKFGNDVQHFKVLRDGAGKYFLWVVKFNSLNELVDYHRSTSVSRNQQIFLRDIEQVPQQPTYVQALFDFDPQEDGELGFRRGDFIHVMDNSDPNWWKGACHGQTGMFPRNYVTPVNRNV
Chain of Hck (P08631 whole entry, looked up): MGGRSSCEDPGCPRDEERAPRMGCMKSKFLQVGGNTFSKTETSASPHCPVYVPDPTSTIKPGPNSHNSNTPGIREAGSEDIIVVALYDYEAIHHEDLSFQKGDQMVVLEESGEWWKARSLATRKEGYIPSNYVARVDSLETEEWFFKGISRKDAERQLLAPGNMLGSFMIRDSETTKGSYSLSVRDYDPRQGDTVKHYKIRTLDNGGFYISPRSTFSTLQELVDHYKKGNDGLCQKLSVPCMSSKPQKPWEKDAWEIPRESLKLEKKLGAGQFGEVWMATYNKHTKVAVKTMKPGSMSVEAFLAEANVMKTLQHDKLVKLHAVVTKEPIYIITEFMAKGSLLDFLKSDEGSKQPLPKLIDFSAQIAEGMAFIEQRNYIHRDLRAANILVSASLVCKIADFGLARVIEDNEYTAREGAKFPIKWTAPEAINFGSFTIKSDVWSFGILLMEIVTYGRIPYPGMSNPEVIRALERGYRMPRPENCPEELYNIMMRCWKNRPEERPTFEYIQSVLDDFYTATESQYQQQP
Chain of EPHB2 (P29323 whole entry, looked up): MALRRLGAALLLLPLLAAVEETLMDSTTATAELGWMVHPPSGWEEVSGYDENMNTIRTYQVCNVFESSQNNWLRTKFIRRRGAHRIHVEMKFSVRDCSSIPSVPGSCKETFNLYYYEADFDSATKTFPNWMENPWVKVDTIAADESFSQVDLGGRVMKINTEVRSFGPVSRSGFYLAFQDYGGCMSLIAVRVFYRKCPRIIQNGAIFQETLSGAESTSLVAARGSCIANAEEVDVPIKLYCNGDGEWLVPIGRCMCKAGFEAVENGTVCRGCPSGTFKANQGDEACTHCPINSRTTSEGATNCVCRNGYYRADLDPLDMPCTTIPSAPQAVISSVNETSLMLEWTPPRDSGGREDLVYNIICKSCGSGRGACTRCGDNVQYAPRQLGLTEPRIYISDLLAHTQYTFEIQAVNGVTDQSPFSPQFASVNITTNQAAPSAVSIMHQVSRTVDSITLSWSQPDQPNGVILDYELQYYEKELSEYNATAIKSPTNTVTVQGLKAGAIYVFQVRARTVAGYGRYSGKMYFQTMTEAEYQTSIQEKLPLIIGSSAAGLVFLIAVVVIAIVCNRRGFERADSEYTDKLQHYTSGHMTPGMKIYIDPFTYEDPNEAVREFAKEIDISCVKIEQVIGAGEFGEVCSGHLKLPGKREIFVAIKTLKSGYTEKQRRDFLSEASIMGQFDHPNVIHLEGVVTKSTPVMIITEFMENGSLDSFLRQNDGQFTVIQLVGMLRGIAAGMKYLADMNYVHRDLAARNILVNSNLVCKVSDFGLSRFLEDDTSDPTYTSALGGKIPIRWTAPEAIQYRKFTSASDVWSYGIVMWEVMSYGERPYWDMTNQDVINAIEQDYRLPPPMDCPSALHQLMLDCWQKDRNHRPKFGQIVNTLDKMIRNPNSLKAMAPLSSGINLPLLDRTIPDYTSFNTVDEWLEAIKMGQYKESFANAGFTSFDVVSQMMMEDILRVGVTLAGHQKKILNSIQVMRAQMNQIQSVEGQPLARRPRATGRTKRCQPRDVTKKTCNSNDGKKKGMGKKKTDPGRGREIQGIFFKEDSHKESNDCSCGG
Chain of Jak2 (O60674 whole entry, looked up): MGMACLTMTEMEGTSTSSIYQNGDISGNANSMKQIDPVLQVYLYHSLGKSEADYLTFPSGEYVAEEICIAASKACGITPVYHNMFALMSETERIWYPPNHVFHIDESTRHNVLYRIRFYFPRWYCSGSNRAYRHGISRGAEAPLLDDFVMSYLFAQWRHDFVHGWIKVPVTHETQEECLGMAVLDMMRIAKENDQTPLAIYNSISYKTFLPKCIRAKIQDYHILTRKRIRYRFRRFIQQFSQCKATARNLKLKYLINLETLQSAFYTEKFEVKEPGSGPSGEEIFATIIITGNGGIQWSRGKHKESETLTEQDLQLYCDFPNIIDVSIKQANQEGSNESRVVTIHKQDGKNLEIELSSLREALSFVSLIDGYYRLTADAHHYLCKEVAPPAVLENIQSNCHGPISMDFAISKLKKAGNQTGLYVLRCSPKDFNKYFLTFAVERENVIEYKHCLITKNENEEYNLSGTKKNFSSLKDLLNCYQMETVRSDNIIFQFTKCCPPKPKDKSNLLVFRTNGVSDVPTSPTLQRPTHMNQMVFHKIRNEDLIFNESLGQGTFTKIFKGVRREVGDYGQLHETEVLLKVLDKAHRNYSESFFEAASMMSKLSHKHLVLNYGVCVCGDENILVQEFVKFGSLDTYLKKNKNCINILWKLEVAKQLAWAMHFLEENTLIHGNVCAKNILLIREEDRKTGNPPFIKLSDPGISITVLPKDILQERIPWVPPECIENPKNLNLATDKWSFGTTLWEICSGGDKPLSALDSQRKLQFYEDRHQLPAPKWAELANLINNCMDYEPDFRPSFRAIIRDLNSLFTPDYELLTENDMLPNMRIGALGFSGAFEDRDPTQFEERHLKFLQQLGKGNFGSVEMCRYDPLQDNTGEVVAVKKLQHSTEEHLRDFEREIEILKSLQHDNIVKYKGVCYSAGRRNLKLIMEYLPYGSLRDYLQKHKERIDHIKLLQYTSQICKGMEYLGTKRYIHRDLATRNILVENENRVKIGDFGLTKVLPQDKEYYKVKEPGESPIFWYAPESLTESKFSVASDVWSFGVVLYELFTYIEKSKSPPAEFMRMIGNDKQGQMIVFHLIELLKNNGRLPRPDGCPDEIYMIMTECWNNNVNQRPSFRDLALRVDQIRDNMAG

| Sequence | phosphorylation enrichment (EPHB2) | phosphorylation enrichment (Fes) | phosphorylation enrichment (Fyn) | phosphorylation enrichment (Jak2) | phosphorylation enrichment (MERTK) | phosphorylation enrichment (FGFR3) | phosphorylation enrichment (Fer (mouse)) | phosphorylation enrichment (c-Abl (mouse)) | phosphorylation enrichment (FGFR1) | phosphorylation enrichment (AncSZ) | phosphorylation enrichment (c-Src) | phosphorylation enrichment (Hck) | phosphorylation enrichment (EPHB1) | SH2 binding enrichment (SHP2-C SH2) | SH2 binding enrichment (c-Src SH2) | SH2 binding enrichment (Grb2 SH2) |
| --- | --- | --- | --- | --- | --- | --- | --- | --- | --- | --- | --- | --- | --- | --- | --- | --- |
| RIDRKYKKVRF [F8_Y442_G439D] | 0.807 | 1 | 0.849 | 2.67 | 1.19 | 0.922 | 0.934 | 1.3 | 0.72 | 1.25 | 1.32 | 1.05 | 0.761 | 0.665 | 0.656 | 1.17 |
| RISPEYKQNEI [GJB1_Y243_L239I] | 0.73 | 1.07 | 0.922 | 0.983 | 0.598 | 0.836 | 0.687 | 1.06 | 0.866 | 1.15 | 0.604 | 0.607 | 0.998 | 1.15 | 0.412 | 0.944 |
| RKMSSYAFFVQ [HMGB1_Y16_G11R] | 0.352 | 1.58 | 0.822 | 0.755 | 1.19 | 0.737 | 0.899 | 0.667 | 0.644 | 1.01 | 0.542 | 0.466 | 0.436 | 1.24 | 1.42 | 1.55 |
| RKRQFYLFKGK [RSPO4_Y112_C107R_YF] | 0.71 | 0.949 | 1.14 | 1.06 | 1.22 | 0.803 | 0.787 | 1.25 | 0.555 | 1.15 | 0.809 | 1.19 | 0.741 | 0.363 | 0.296 | 0.295 |
| RLGVTYEQALA [MAP2_Y996_G991R] | 1.81 | 1 | 0.77 | 1.15 | 0.737 | 0.825 | 0.535 | 0.965 | 0.721 | 1.36 | 1.05 | 0.56 | 0.729 | 0.539 | 0.871 | 0.848 |
| RLLRGHDQSAF [HLA-C_Y137_Y137H_YF] | 0.389 | 0.738 | 0.501 | 0.732 | 0.421 | 0.47 | 0.357 | 0.653 | 0.427 | 0.79 | 0.573 | 0.566 | 0.465 | 0.718 | 0.657 | 0.89 |
| RLLRGYDQLAY [HLA-C_Y137_S140L] | 0.67 | 1.02 | 0.735 | 0.649 | 0.581 | 0.976 | 0.758 | 0.477 | 0.65 | 1.29 | 0.45 | 0.637 | 0.719 | 0.727 | 5.06 | 1.1 |
| RLLVFYPWTQR [HBB_Y36_V35F] | 0.938 | 1.47 | 0.616 | 1.73 | 0.512 | 0.891 | 0.65 | 1.02 | 0.877 | 2.05 | 0.509 | 0.557 | 0.794 | 2.1 | 1.8 | 2.4 |
| RLLVVYPSTQR [HBB_Y36_W38S] | 0.931 | 1.75 | 0.802 | 1.04 | 0.753 | 0.94 | 0.7 | 0.899 | 1.07 | 1.19 | 0.646 | 1.17 | 0.602 | 2.26 | 1.47 | 2.08 |
| RLLVVYPWTQK [HBG1_Y36_R41K] | 0.529 | 0.926 | 0.508 | 0.63 | 0.32 | 0.69 | 0.468 | 0.617 | 0.473 | 0.842 | 0.388 | 0.547 | 0.581 | 2.19 | 1.76 | 2.31 |
| RLLVVYTWTQR [HBB_Y36_P37T] | 1.12 | 2.12 | 0.739 | 1.08 | 0.694 | 0.941 | 0.842 | 0.862 | 0.661 | 1.81 | 0.509 | 0.915 | 0.656 | 1.55 | 1.01 | 1.68 |
| RMDGTYACSYT [FLNB_Y704] | 0.85 | 1.02 | 1.87 | 0.92 | 0.757 | 0.579 | 0.617 | 1.47 | 0.538 | 0.934 | 3.25 | 1.74 | 0.876 | 1.02 | 0.923 | 1.17 |
| RNIQQCNSFVS [PRKAR1A_Y373_Y373C] | 0.634 | 1.18 | 0.506 | 1.4 | 0.66 | 0.662 | 0.773 | 0.922 | 0.501 | 1.28 | 0.707 | 0.711 | 0.718 | 0.8 | 0.572 | 0.82 |
| RNLDTYQKRLR [PLA2G2D_Y126] | 0.279 | 0.61 | 0.452 | 0.661 | 0.474 | 0.484 | 0.307 | 0.762 | 0.373 | 0.617 | 0.463 | 0.55 | 0.831 | 0.504 | 0.629 | 0.918 |
| RPGSGYTKIMR [PKLR_Y564_N566K] | 0.303 | 0.525 | 0.404 | 0.41 | 0.48 | 0.368 | 0.42 | 0.396 | 0.372 | 0.546 | 0.348 | 0.409 | 0.415 | 1.69 | 2.98 | 0.999 |
| RQLEIYRASRP [ERCC4_Y594] | 0.254 | 0.673 | 0.426 | 0.535 | 0.391 | 0.389 | 0.427 | 0.727 | 0.312 | 0.663 | 0.408 | 0.316 | 0.388 | 0.49 | 0.402 | 0.623 |
| RQNQEYEILMD [KRT39_Y379_L383M] | 1.58 | 1.45 | 0.815 | 1.66 | 0.503 | 0.847 | 0.705 | 0.994 | 0.698 | 1.53 | 0.861 | 0.695 | 1.79 | 0.556 | 0.835 | 0.843 |

| Sequence | phosphorylation enrichment (EPHB2) | phosphorylation enrichment (Fes) | phosphorylation enrichment (Fyn) | phosphorylation enrichment (Jak2) | phosphorylation enrichment (MERTK) | phosphorylation enrichment (FGFR3) | phosphorylation enrichment (Fer (mouse)) | phosphorylation enrichment (c-Abl (mouse)) | phosphorylation enrichment (FGFR1) | phosphorylation enrichment (AncSZ) | phosphorylation enrichment (c-Src) | phosphorylation enrichment (Hck) | phosphorylation enrichment (EPHB1) | SH2 binding enrichment (SHP2-C SH2) | SH2 binding enrichment (c-Src SH2) | SH2 binding enrichment (Grb2 SH2) |
| --- | --- | --- | --- | --- | --- | --- | --- | --- | --- | --- | --- | --- | --- | --- | --- | --- |
| RQNRFYDAKVR [FKBP6_Y188] | 0.432 | 0.715 | 0.427 | 0.81 | 0.672 | 0.496 | 0.605 | 0.658 | 0.506 | 0.687 | 1.18 | 0.606 | 0.226 | 0.675 | 0.441 | 1.02 |
| RQSRNYLGGFA [SYK_Y47] | 0.56 | 0.562 | 0.597 | 0.436 | 1.75 | 0.386 | 0.404 | 0.684 | 0.329 | 0.841 | 0.69 | 0.483 | 0.316 | 0.519 | 0.407 | 0.612 |
| RRAKGYPINLY [ITGB2_Y125_D128N] | 0.853 | 0.932 | 0.963 | 0.693 | 0.623 | 0.605 | 0.656 | 0.535 | 0.814 | 0.762 | 0.7 | 0.912 | 0.707 | 0.55 | 0.484 | 0.764 |
| RRESPYGGGGG [FUS_Y526_R524S] | 0.546 | 0.611 | 0.451 | 0.74 | 0.501 | 0.414 | 0.436 | 0.569 | 0.402 | 0.636 | 0.519 | 0.596 | 0.46 | 0.362 | 0.566 | 0.907 |
| RRIHSHRGHLW [VHL_Y112_Y112H] | 0.732 | 1.01 | 0.604 | 0.659 | 0.621 | 0.701 | 0.689 | 0.909 | 0.558 | 0.918 | 0.828 | 0.737 | 0.773 | 0.262 | 0.378 | 0.906 |
| RRIHSYRCHLW [VHL_Y112_G114C] | 0.477 | 1.25 | 0.767 | 0.762 | 0.786 | 0.641 | 0.68 | 0.822 | 0.642 | 0.967 | 0.748 | 0.629 | 0.564 | 0.61 | 0.651 | 0.707 |
| RRNNSYTCFTA [SLC20A2_Y386_YF] | 1.65 | 1.68 | 1.19 | 1.95 | 1.3 | 1.33 | 0.734 | 1.86 | 0.886 | 2.81 | 1.69 | 0.771 | 0.96 | 0.509 | 0.695 | 0.7 |
| RSAGKYDVYFI [MECP2_Y120_L124F] | 0.467 | 1.34 | 5.26 | 0.925 | 1.02 | 0.484 | 0.464 | 0.923 | 0.535 | 1.09 | 3.15 | 4.46 | 0.691 | 0.804 | 0.639 | 0.923 |
| RSDSSYRMSAT [NHS_Y1532] | 0.673 | 0.757 | 0.747 | 0.598 | 0.68 | 0.754 | 0.541 | 0.679 | 0.717 | 0.764 | 0.585 | 0.775 | 0.592 | 0.809 | 0.476 | 0.844 |
| RTVPLYESLRK [DDB1_Y718_P721L] | 26.1 | 1.15 | 11.7 | 0.547 | 8.17 | 0.437 | 11.3 | 1.07 | 0.466 | 0.668 | 8.53 | 12.4 | 23 | 1.07 | 0.78 | 1.04 |
| RVGNMYMRGLS [ABCG8_Y209_V210M] | 0.559 | 0.966 | 0.657 | 0.663 | 0.697 | 0.596 | 0.469 | 0.453 | 0.704 | 0.672 | 0.552 | 0.615 | 0.615 | 1.7 | 1.01 | 1.42 |
| SAEKAYHEQLS [TUBA1A_Y282] | 0.424 | 0.844 | 0.428 | 0.619 | 0.418 | 0.572 | 0.425 | 0.511 | 0.604 | 0.558 | 0.369 | 0.443 | 0.462 | 0.785 | 0.506 | 0.951 |
| SCRENYSFSEE [LEMD3_Y258_D260Y_YF] | 0.725 | 1.08 | 0.501 | 0.988 | 0.38 | 0.75 | 0.53 | 0.791 | 0.452 | 1.1 | 0.588 | 0.509 | 0.709 | 0.716 | 0.807 | 1.05 |
| SDPIIYTLENI [ADGRE1_Y534] | 0.559 | 1.31 | 7.17 | 0.948 | 1.43 | 0.724 | 7.52 | 0.653 | 0.491 | 0.963 | 5.13 | 1.49 | 0.568 | 0.777 | 0.519 | 0.936 |
| SEDSEYFRAFE [CASQ2_Y178_K180R_YF] | 0.591 | 1.48 | 0.545 | 1.26 | 0.476 | 0.854 | 0.511 | 1.31 | 0.586 | 1.99 | 0.693 | 0.524 | 0.633 | 0.559 | 0.439 | 0.874 |
| SEKVVYRRFTE [NCF1_Y41] | 0.423 | 0.671 | 0.432 | 0.61 | 0.438 | 0.472 | 0.387 | 0.527 | 0.406 | 0.663 | 0.438 | 0.414 | 0.39 | 0.44 | 0.42 | 0.752 |
